In the supplement of paper PMC9170038:

System: MS2 coat protein
Assay: apparent KD of MS2 coat protein; designed switch direction (-1 OFF switch, 1 ON switch): -1; higher = weaker reporter binding
Procedure, shortened: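 Designed RNA switches with common flanks were made on Illumina chips by stalled E. coli RNA polymerase. Titration with SNAP-549-labelled MS2 coat protein doubled from 0.7 or 1.5 nM up to 3 µM. Apparent KD is each design's median over clusters after curve-fitting normalised fluorescence.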

[1] = Eterna round: R95, input ligand: microRNA oligo, concentration not stated
[2] = Eterna round: R95, input ligand: FMN 200 uM
[3] = Eterna round: R95, input ligand: none
[4] = input ligand: microRNA oligo, concentration not stated

Row | Sequence | apparent KD of MS2 coat protein [1] [nM] | apparent KD of MS2 coat protein [2] [nM] | apparent KD of MS2 coat protein [3] [nM] | apparent KD of MS2 coat protein (input ligand: FMN 200 uM) [nM] | apparent KD of MS2 coat protein (input ligand: none) [nM] | apparent KD of MS2 coat protein [4] [nM]
1 | UGUGCGUAUGUGAGGAUAUGCUGGUCCUUGGCUCGGCAGAAGGCACAUGAGGAUCACCCAUGUGGUGUCGUACC [salish99_Bmod_ex4_060] (puzzle: Brourd's mod of Exclusion 4) | 33.1 | – | – | – | – | –
2 | ACAAGCUUUUUGUUCGUCUUAUAAUAUUAAAUAAAGAUAACAUGAGGAUCACCCAUGUAACAAAGACGGACUCAUGU [Sesor Array 17 - Jieux - Sensor v3, turn-off variant 2] (puzzle: Sensor v3, turn-off variant 2) | 200 | 16.2 | 13.8 | – | – | –
3 | GGAACGCGAGGAUAUACAUAGCCGGAAACGGCAAUAGCCUCACAUGAGGAUCACCCAUGUAGAAGGCGCGGAGA [AK-MS2ROC-r4-exclusion2-24] (Eterna round: R97, puzzle: Exclusion 2) | – | – | – | 119 | 17.2 | –
4 | UUCCUCGUUGUGAGGAUAUCGUCCUAUUUUUGUUACGAGAAGGCACAUGAGGAUCACCCAUGUUACUUGAUGUU [JR_BMOE4_Sub071] (Eterna round: R96, puzzle: Brourd's mod of Exclusion 4) | – | – | – | 188 | 26 | 21.1
5 | UUGGAACGAGGAUAUCGAUGGUGGAACAUGAGGAUCACCCAUGUAUGAGAUAGUGUAGUUCGAGAAGGCGUUAAGU [JR_E5_Sub054] (puzzle: Exclusion 5) | 40.3 | 24.1 | 48.9 | – | – | –
6 | CAGUACUGAGGAUAUACAUGAGGAUCACCCAUGUGUUCCAGCUAGGAAGCUAGCAAAAGUAGAAGGCAGUACUG [salish99_ex3_r3_073] (puzzle: Exclusion 3) | 26.6 | – | – | – | – | –
7 | UGUUGUCGCGCAGGAUAUGAGGAUCACCCAUAUACAGGAUAUGAAAAGAAGGGUCUGAGGAUCACCCAGAAGGGCGGGACAACU [pwkr exNG2 2xF5 2xFMN.27] (Eterna round: R96, puzzle: Exclusion NG 2) | – | – | – | 1340 | 135 | 99.9
8 | ACUAGAUGAGGAUAUGCACAUUUUAGUGUUCCUCUAGAUUAACAUGAGGAUCACCCAUGUAGAAGGCGUCAUUA [Exclusion 2 - 14] (puzzle: Exclusion 2) | 49.9 | – | – | – | – | –
9 | UGUAAGCUAGGAUAUGCUUUGGGAAAGCAUUCCUUCGAUAAACUUGAGGAUCACCCAAGUAGAAGGAGCUUACG [salish99_ex2_r4_007] (Eterna round: R97, puzzle: Exclusion 2) | – | – | – | 14.1 | 12.8 | –
10 | CGAUGCUCGUGUCCACAUGAGGAUCACCCAUGUCGAGUUAGCGAGGAUAUCGGUGACACAUAGUACGAGAAGGCGCGAACCUGA [Ex NG3 #26] (Eterna round: R96, puzzle: Exclusion NG 3) | – | – | – | 54.3 | 32.2 | 21
11 | CUGAGCAGACGGAGAUCCAACAUGAGGAUCACCCAUGUCUCAUAAGCUUUUUGCUCAUCUUAUUGUACCUUGGUGCU [JL ViennaUCT Edcesobi mod 3] (puzzle: Sensor v3, turn-off variant 1) | 14.4 | 275 | 323 | – | – | –
12 | GUGUACGGAGGAUAUAUAUGGGCAGCAUACGCUGCAGCUUCACAUGAGGAUCACCCAUGUAGAAGGCUGUACAC [Mat - Exclusion 2 - Mod of Hyphema - D100] (Eterna round: R96, puzzle: Exclusion 2) | – | – | – | 223 | 24.8 | 18.5
13 | CCCAUGUCAGGAUAUCUAAGAGAGGGCCAGCCCUCUCCUCCGGAGAAGGGACAUGAGGAUCACCCAUGUAAAAC [Biedle] (puzzle: Exclusion 4) | 93.3 | – | – | – | – | –
14 | CACUUACAUGAGGAUCACCCAUGUGAGGAUAUCGUGACCAGACGAGAAGUCUAUGUCACGAGAAGGCACUUGGG [Exclusion 1 (Mod 2 solution 97 by Eternabot)] (Eterna round: R97, puzzle: Exclusion 1) | – | – | – | 114 | 314 | –
15 | CAGAACAGAGGAUAUACAUGAGGAUCACCCAUGUGUUCCAGCUAGGAGACUAGCAUAUGUAGAAGGCUGUUCUG [Mat - Exclusion 3 - JL Mod - D12] (Eterna round: R97, puzzle: Exclusion 3) | – | – | – | 87.7 | 161 | –
16 | AAGCGGUGAGGAUAUACAUGAGGAUCACCCAUGUGUAUGCAGAGGGCGCGGUGUUGGUGUAGAAGGCACUGGGA [EX3 B.10] (Eterna round: R97, puzzle: Exclusion 3) | – | – | – | 23 | 19.4 | –
17 | AUAAUAAAGGAGGAUAUCGUAUCGGAAACGAUACGAGAAGGUCUAACAUGAGGAUCACCCAUGUUCCUCAAAUA [Mat - Exclusion 6 - Eli Mod - D49] (puzzle: Exclusion 6) | 40.9 | – | – | – | – | –

Row | Sequence | apparent KD of MS2 coat protein [1] [nM] | apparent KD of MS2 coat protein [2] [nM] | apparent KD of MS2 coat protein [3] [nM] | apparent KD of MS2 coat protein (input ligand: FMN 200 uM) [nM] | apparent KD of MS2 coat protein (input ligand: none) [nM] | apparent KD of MS2 coat protein [4] [nM]
18 | AGUAGUAGUAUCCGAUCCUACAUGAGGAUCACCCAUGUGGCUAGACGUGCACGCGAUGCUCGUCAGACUACCAGAUG [salish99_TOv1_r3_038] (puzzle: Sensor v3, turn-off variant 1) | 269 | 404 | 506 | – | – | –
19 | AUGCCGAGUGUAGGAUAUGGCCCGGAACCACGGCCAGAAGGACAUGAGGAUCACCCAUGUGGCCCGAUAUACACGGUAUCAGAC [Eternabot solution 1] (Eterna round: R96, puzzle: Exclusion NG 1) | – | – | – | 44.7 | 24.4 | 17.7
20 | GCGACACGAGGAUAUCGGGUCUCUAACAUGAGGAUCACCCAUGUGGCGGCAGGCGUAAGACGAGAAGGCGUAUUCA [Eternabot (L2) Solution 65] (Eterna round: R97, puzzle: Exclusion 5) | – | – | – | 26.6 | 34.3 | –
21 | GGUUCGAGAGUAAGGAUAUCGGUCUGCGCGAGUGACGAGAAGGUACAUGAGGAUCACCCAUGUCGAGGGAUCAC [Eternabot (L2) Solution 23] (Eterna round: R97, puzzle: Brourd's mod of Exclusion 4) | – | – | – | 35.8 | 34.9 | –
22 | CCGGCUGCUGUGAGGAUAUGCCCGCGCGCCCGCGGGCAGAAGGCACAUGAGGAUCACCCAUGUCCUGCGGUCCC [salish99_bmx4_r4_120] (Eterna round: R97, puzzle: Brourd's mod of Exclusion 4) | – | – | – | 122 | 24.1 | –
23 | UAUUAUAAUGUAGGAUAUCUGCACGUUUAGUGCAGAGAAGGACAUGAGGAUCACCCAUGUAUAGUAGCUUCGGCUACAUUAUUU [ENG1-B2] (Eterna round: R96, puzzle: Exclusion NG 1) | – | – | – | 103 | 68.9 | 52.2
24 | UGCAGACGAGGAUAUGAUAAAGAUCACAUGAGGAUCACCCAUGUAGCGUCGAUAGACGCAUCAGAAGGCGUCUGCA [E5/1-A2] (Eterna round: R97, puzzle: Exclusion 5) | – | – | – | 16.3 | 16 | –
25 | AAUUCUAGGGUCAGACGCACAAGCUUUUUGCUCGUUUUAACAUGAGGAUCACCCAUGUCUAGUGGAUCUGAUCGGGC [JL ViennaUCT Isreen mod 8] (Eterna round: R96, puzzle: Sensor v3, turn-off variant 2) | – | – | – | 25.3 | 33.3 | 58.1
26 | CGUGACUCAGGAUAUCUAUAAUAUCACAUGAGGAUCACCCAUGUCCAGCGAAAGCUGGAGAGAGAAGGGAGUCACG [Fiskers Ex 5 - 36] (puzzle: Exclusion 5) | 67.3 | 67.7 | 61.5 | – | – | –
27 | GGAAGAAAGCGAGGAUAUCGAUAAGAAGAAGAAGAUAAGGUGACAUGAGGAUCACCCAUGUAAUACGAGAAGGCGCGACCUGCG [i'd better go back to my homework] (Eterna round: R96, puzzle: Exclusion NG 2) | – | – | – | 215 | 197 | 147
28 | AAGUAUAGAGGAUAUAGUGAGUACUACAUGAGGAUCACCCAUGUUCUUCAAAGCGUAUUUCUAGAAGGCUGUUAAA [EX-5 Malc#18] (puzzle: Exclusion 5) | 48.7 | 123 | 53.1 | – | – | –
29 | AAACCUAUAGGAUAUACAUGAGGAUCACCCAUGUUGCGAUUUUUUAGGUAACAGAUCCGUAGAAGGGUAGGGCA [Retebi] (puzzle: Exclusion 3) | 28.3 | – | – | – | – | –
30 | GGAGAGUCAGGAUAUCGAAGGUAGUGGAGAGGAGUGUGGUACGAGAAGGGACAUGAGGAUCACCCAUGUAGGUG [JR_Exclusion4)Sub010] (puzzle: Exclusion 4) | 423 | 306 | 478 | – | – | –
31 | AAUAACAGAGGAUAUACUGUUUUAUGUGUUUGUUGUUUUGAACAUGAGGAUCACCCAUGUAGAAGGCUGAGUAA [JMF 41] (puzzle: Exclusion 2) | 22.9 | – | – | – | – | –
32 | AUUAGUAAUAAGGAUAUCACUAGCCUCGGCUAGUGAGAAGGUAUUACAUGAGGAUCACCCAUGUGAUUAAUUAA [E6/5-A2] (Eterna round: R97, puzzle: Exclusion 6) | – | – | – | 463 | 79.7 | –
33 | UAUUAGCAAGCGAGAUCCUACAUGAGGAUCACCCAUGUGCUCGUCUUAUAAGGUACUGUGACGAAAGUCACGGUACC [Eli 91 v36] (Eterna round: R97, puzzle: Sensor, turn-off variant 1) | – | – | – | 18.2 | 27.5 | –
34 | CACCAGCGAGGAUAUACACGUGGUCUCCACUCCCGGUGGUAACAUGAGGAUCACCCAUGUAGAAGGCGCAACAU [Gecedi] (puzzle: Exclusion 2) | 44.8 | – | – | – | – | –
